In assay [1] the target is Bacteroidetes bacterium GWA2_30_7 CuZn superoxide dismutase (BbCuZnSOD) (Bacteroidetes bacterium GWA2_30_7). In words: SEC-MALS; size-exclusion chromatography coupled static light scattering (SEC-SLS), masses from refractive index; 20 mM Tris-HCl pH 7.4, 150 mM NaCl. (Size exclusion chromatography separates by hydrodynamic size, large species first.)
In assay [2] the target is Rickettsiales bacterium TMED131 CuZn superoxide dismutase (RbCuZnSOD) (Rickettsiales bacterium TMED131). The assay is described as above.

For the substance “Bacteroidetes bacterium GWA2_30_7 CuZn superoxide dismutase (BbCuZnSOD) (enzyme)”, the stoichiometry N in assay [1] amounted to 2.

Substance “Rickettsiales bacterium TMED131 CuZn superoxide dismutase (RbCuZnSOD) (enzyme)” gave a stoichiometry N in assay [2] of 2.

Usually stoichiometry N stands for a count of units in the complex or per binding partner.

These data come from paper PMC8382915.
